Drawing on paper PMC3406077 (2012), this text covers response (O.D. (492 nm)) for three molecules.

The assay deals with laminin isolated from Engelbreth-Holm-Swarm murine sarcoma basement membrane. The assay can be described thus: ELISA. To be noted: chain shown with the change; 20 µg protein per well; laminin 0.5 µg per well; parent: est. 3.1; read off a plot. In general terms: In an ELISA, binding on a coated surface is turned into a signal by an enzyme label.

Residue numbers refer to the chain shown, from its start. Names may count otherwise.

B1: wild-type full-length (C24-P237) pallilysin, O83732 H198A (protein)
chain: CFQHGHVPPRRIPPHDTFGALPTAALPSNARDTAAHPSDTADNTSGSSTTTDPRSHGNAPPAPVGGAAQTHTQPPVQTAMRIALWNRATHGEQGALQHLLAGLWIQTEISPNSGDIHPLLFFDREHAEITFSRASVQEIFLVDSAHTHRKTVSFLTRNTAISSIRRRLEVTFESAEVIHVRAVEDVARLKIGSTSMWDGQYTRYHAGPASAPSP
Consider B1, for which the response (O.D. (492 nm)) was 3.1.

B2: wild-type full-length (C24-P237) pallilysin, O83732 E199A (protein)
chain: B1 chain with A175H, E176A
In the case of B2, the response (O.D. (492 nm)) amounted to 3.3.

B3: wild-type full-length (C24-P237) pallilysin, O83732 H202A (protein)
chain: B1 chain with A175H, H179A
For B3, the response (O.D. (492 nm)) is 3.
